Test results from patent publication US20220332811A1 (NOVAROCK BIOTHERAPEUTICS, published 2022).

T1: recombinant human IL-23 (p19/p40 heterodimer) (human, UniProt Q9NPF7 20-189; P29460 23-328)
T1 sequence (looked up) 1: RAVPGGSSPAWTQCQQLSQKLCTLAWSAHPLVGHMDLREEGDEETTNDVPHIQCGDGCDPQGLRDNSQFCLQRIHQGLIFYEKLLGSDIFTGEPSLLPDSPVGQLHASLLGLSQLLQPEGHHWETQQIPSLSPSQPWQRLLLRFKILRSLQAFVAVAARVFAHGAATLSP
T1 sequence (looked up) 2: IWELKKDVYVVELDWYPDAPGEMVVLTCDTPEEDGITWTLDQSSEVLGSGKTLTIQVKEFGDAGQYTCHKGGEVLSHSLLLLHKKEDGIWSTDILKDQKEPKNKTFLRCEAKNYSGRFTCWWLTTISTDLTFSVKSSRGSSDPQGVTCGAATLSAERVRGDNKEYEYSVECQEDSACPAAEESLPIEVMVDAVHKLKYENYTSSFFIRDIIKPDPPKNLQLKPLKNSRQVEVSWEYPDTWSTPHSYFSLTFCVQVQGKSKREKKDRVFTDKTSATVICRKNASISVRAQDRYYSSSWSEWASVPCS

T2: human p40 subunit protein (human, UniProt P29460 23-328)
T2 construct: p40 subunit alone; also called hp40
T2 sequence (looked up): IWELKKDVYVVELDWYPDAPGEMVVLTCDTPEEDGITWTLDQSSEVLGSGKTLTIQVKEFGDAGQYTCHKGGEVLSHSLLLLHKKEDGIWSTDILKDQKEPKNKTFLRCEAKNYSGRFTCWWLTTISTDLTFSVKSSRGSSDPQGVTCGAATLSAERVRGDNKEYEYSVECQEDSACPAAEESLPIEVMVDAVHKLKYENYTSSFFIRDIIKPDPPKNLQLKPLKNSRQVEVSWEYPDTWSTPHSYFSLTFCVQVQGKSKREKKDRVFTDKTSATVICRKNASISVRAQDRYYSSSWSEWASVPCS

T3: human IL-12 protein (human, UniProt P29459 23-219; P29460 23-328)
T3 construct: Recombinant protein; also called hIL12; hIL-12
T3 sequence (looked up) 1: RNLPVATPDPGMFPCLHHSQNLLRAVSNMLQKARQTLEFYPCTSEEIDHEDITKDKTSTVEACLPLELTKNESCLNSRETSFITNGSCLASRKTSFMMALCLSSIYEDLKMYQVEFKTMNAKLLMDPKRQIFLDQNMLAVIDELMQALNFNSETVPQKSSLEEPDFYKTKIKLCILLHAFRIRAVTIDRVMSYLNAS
T3 sequence (looked up) 2: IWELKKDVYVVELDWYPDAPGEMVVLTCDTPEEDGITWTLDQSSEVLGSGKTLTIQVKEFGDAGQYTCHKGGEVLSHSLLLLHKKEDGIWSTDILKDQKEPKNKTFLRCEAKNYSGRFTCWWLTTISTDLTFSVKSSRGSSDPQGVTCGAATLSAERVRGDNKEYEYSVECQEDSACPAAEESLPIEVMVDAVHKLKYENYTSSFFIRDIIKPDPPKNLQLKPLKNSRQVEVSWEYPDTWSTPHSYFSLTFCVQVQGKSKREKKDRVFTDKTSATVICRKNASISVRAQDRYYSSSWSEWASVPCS


Key:
[1] = biological target: T1, recombinant human IL-23 (p19/p40 …); assay: cell-based or functional assay
[2] = biological target: T2, human p40 subunit protein; assay: ELISA; antigen coated directly on plate
Procedure: (§1) The binding specificity of the disclosed anti-IL-23p19 antibodies were also assessed by ELISA. Briefly, biotinylated IL-23 were captured via streptavidin coated ELISA plates. Human p19/mouse p40, human IL-12 and human p40 subunit were directly coated to ELISA plates. Purified antibodies were then added to the plates followed by detection by goat-anti-mouse IgG-HRP (Jackson ImmunoResearch, catalog no: 115-036-071, LOT NO: 147271). After addition of ABTS substrate (Moss Inc., catalog no: ABTS-1000, LOT NO: 03086202), ELISA plates were read using an ELISA plate reader (Biotek). The controls depicted in FIG. 3: PC1 refers to a reference antibody (known to be a p19 specific antibody, Biointron, LOT NO:20180926A04); PC2 refers to a reference antibody (known to be a p40 specific antibody, Biointron, LOT NO: 20180925A07); PC3 refers to a reference antibody (MT155, known as a p19 specific antibody from Mabtech, catalog no: 3457-6-100, code: 3457-6-1000), the negative controls are human IgG4 (Dendritics, catalog no: DDXCHO4P-100, LOT NO: DDXCH04-028) and the mouse IgG2a (generated by Novarock Biotherapeutics).

[3] = biological target: T3, human IL-12 protein; assay: ELISA; antigen coated directly on plate
Procedure: as §1

[4] = biological target: T1, recombinant human IL-23 (p19/p40 …); assay: SPR (BIAcore 3000); captured antibody, hIL-23 0.156-40 nM, 1:1 global fit
[5] = biological target: T2, human p40 subunit protein; assay: SPR (BIAcore); antibody captured on anti-Fc chip, antigen injected
Procedure: (§2) Binding of anti-IL-23p19-specific antibodies to IL-23 proteins was analyzed by Surface plasmon resonance (SPR) determined by BIAcore. Briefly, serial dilutions of the anti-IL-23p19 antibodies or the control antibodies were captured on an anti-mouse or human Fc chip (s) that were immobilized on the CM5 chip using amine coupling kit (GE Healthcare, Catalog NO: BR-1000-50, LOT NO: 2087295).
(§3) Next, serial dilutions of IL-23 recombinant protein, human p19/mouse p40 heterodimer protein, human IL-12 protein and human p40 subunit protein in the running buffer containing 10 mM HEPES, 150 mM NaCl, 3 mM EDTA, 0.005% Tween 20, pH 7.4, were injected at 50 μl/minute over immobilized antibody for 1 minute followed by 2 minutes dissociation. Each injection was followed by a regeneration step with a 60-second pulse of 10 mM Glycine-HCl, pH 1.7 buffer. Fitting of experimental data was done with BIAevaluation software (GE Healthcare), fit with a Langmuir 1:1 model to determine apparent binding.

[6] = biological target: T3, human IL-12 protein; assay: as above
Procedure: as §2, §3

[7] = biological target: T1, recombinant human IL-23 (p19/p40 …); assay: SPR (BIAcore 3000); antibody captured on anti-mouse IgG CM5 chip, hIL-23 0.156-40 nM, 1:1 global fit
Procedure: To ensure accurate measurements of the KD and IC50 endpoints in binding and functional assays, the antibodies were purified from the hybridoma culture supernatants prior to testing. The binding kinetics of the disclosed anti-IL-23p19-specific antibodies to recombinant human IL-23 was determined by Surface plasmon resonance (SPR) using BIAcore 3000 system docked with a CM5 chip previously immobilized via amine coupling chemistry with anti-mouse IgG antibody (GE Cat No. BR-1008-38). Flow cell 1 remained unmodified to serve as a reference cell for subtraction of systematic instrument noise and drift. Fc2-1 detection was run with double blanking (Fc1 and blank analyte buffer). Antibody samples were diluted to 50 μg/mL in HBS-EP (GE, catalog no: BR1001-88) and injected at a flow rate of 10 uL/minute for 1 minute. Next, hIL-23 (R&D systems, catalog no: 1290-IL/CF) diluted to 0.156-40 nM was injected at 50 μL/minute for 2 minutes, followed by 10 minutes dissociation. Data were analyzed in BIAEvalution software (GE Healthcare) by 1:1 binding model with global fit to determine apparent binding kinetics.

Binder | IC50 pM, STAT3 activation in DB reporter cells [1] [pM] | Top % of inhibition, STAT3 activation in DB reporter cells [1] [%] | binding result [2] | binding result [3] | Kd [4] [nM] | koff [4] [s⁻¹] | kon [4] [M⁻¹ s⁻¹] | binding result [5] | binding result [6] | Kd [7] [nM] | koff [7] [s⁻¹] | kon [7] [M⁻¹ s⁻¹]
Hu-4 18006B (purified from hybridoma) (antibody, IgG2c, V domains shown) VH: QVHLVQSGAEVKKPGASVKVSCKASGYTFSSYGINWVRQAPGQGLEWMGWISAYSGNTDYSQHLQGRVTMTTDTSTNTAYMELRSLRSDDTAVYYCARASANWYDYFDPWGQGTLVTVSS VL: EIVLTQSPDFQSVTPKEKVTITCRASQTIGGSLHWYQQKPDQSPKLLITYASQSFSGVPSRFSGSGSGTDFTLTIHSLEAEDAATYYCHQSSILPYTFGQGTKLEIK | 168 | 99 | no binding | no binding | – | – | – | – | – | – | – | –
Hu-4 18006B* (recombinant, mIgG2a) (antibody, V domains shown) VH: QVHLVQSGAEVKKPGASVKVSCKASGYTFSSYGINWVRQAPGQGLEWMGWISAYSGNTDYSQHLQGRVTMTTDTSTNTAYMELRSLRSDDTAVYYCARASANWYDYFDPWGQGTLVTVSS VL: EIVLTQSPDFQSVTPKEKVTITCRASQTIGGSLHWYQQKPDQSPKLLITYASQSFSGVPSRFSGSGSGTDFTLTIHSLEAEDAATYYCHQSSILPYTFGQGTKLEIK | 265 | 100 | – | – | – | – | – | no binding | no binding | – | – | –
Hu-2 18006B (antibody, V domains shown, Purified from hybridoma (Trianni mice); also called H-2 1800B (mIgG1)) VH: QVQLVQSGAEVKKPGASVKVSCKASGYTFTTYGISWVRQAPGQGLEWMGWISAYNGNTKYAQKLQGRVTMTTDTSTSTAYMELRSLRSDDTAVYYCAREWRAFYYYGLDVWGQGTTVTVSS VL: DIVMTQTPLSSPVTLGQPASISCRSSQSLEHSDGNTYLSWLQQRPNQPPRLLIYKVSNRFSGVPDRFSGSGAGTDFTLKISRVEAEDVGVYYCTQATQFPLTFGGGTKVEIK | 158 | 97 | – | – | – | – | – | no binding | no binding | 0.0416 | 6.54e-05 | 1.57e+06

Results, then the binder that gave them:

IC50 pM, STAT3 activation in DB reporter cells [1] [pM] | Top % of inhibition, STAT3 activation in DB reporter cells [1] [%] | binding result [2] | binding result [3] | Kd [4] [nM] | koff [4] [s⁻¹] | kon [4] [M⁻¹ s⁻¹] | binding result [5] | binding result [6] | Kd [7] [nM] | koff [7] [s⁻¹] | kon [7] [M⁻¹ s⁻¹] | Binder
60.5 | 99 | – | – | – | – | – | – | – | – | – | – | Hu-6 18006B (purified from hybridoma) (antibody, V domains shown) VH: QVQLVQSGAEVKKPGASVKVSCKTSGYTFTYYGISWVRQAPGQGLEWMGLISAYNGNTNYGQKVQGRVTMTTDTSTSTAYMELRSLRSDDTAVYYCVTENINWRDAFDIWGQGTMVTVSS VL: EIVLTQSPDFQSVTPKEKVTITCRASQTIGSSLHWYQQKPDQSPKLLIKYASQSISGVPSRFSGSGSGTDFTLTINSLEAEDAAAYYCHQSSSLPYTFGQGTKLEIK
157 | 100 | – | – | 0.0572 | 0.000143 | 2.5e+06 | no binding | no binding | – | – | – | Hu-4 18006B** (recombinant, hIgG4) (antibody, V domains shown) VH: QVHLVQSGAEVKKPGASVKVSCKASGYTFSSYGINWVRQAPGQGLEWMGWISAYSGNTDYSQHLQGRVTMTTDTSTNTAYMELRSLRSDDTAVYYCARASANWYDYFDPWGQGTLVTVSS VL: EIVLTQSPDFQSVTPKEKVTITCRASQTIGGSLHWYQQKPDQSPKLLITYASQSFSGVPSRFSGSGSGTDFTLTIHSLEAEDAATYYCHQSSILPYTFGQGTKLEIK
35.2 | 99 | – | – | – | – | – | no binding | no binding | 0.0384 | 0.000171 | 4.44e+06 | Hu-6 18006B* (recombinant mIgG2a) (antibody, V domains shown) VH: QVQLVQSGAEVKKPGASVKVSCKTSGYTFTYYGISWVRQAPGQGLEWMGLISAYNGNTNYGQKVQGRVTMTTDTSTSTAYMELRSLRSDDTAVYYCVTENINWRDAFDIWGQGTMVTVSS VL: EIVLTQSPDFQSVTPKEKVTITCRASQTIGSSLHWYQQKPDQSPKLLIKYASQSISGVPSRFSGSGSGTDFTLTINSLEAEDAAAYYCHQSSSLPYTFGQGTKLEIK
226 | 99 | – | – | – | – | – | no binding | no binding | 0.0662 | 9.89e-05 | 1.49e+06 | Hu-5 18006B (antibody, IgG2b, V domains shown, Purified from hybridoma) VH: QLQLQESGPGLVKPSETLSLTCTVSGGSISSSSFYWGWIRQPPGKGLEWIGSIYYSGSTYYNPSLKSRVTISVDTSKNQFSLKLSSVTAADTAVYFCARHGVRGVIPHFDYWGQGTLVTVSS VL: QTVLTQEPSFSVSPGGTVTLTCGLNSGSVSTIYYPSWYQQTPGQAPRALIYSTNTRSSGVPDRFSGSILGNKAALTITGAQADDESDYYCVLFLGSGLVFGGGTKLTVL
